Data from patent publication US20040234623A1.

Biological target: rabbit anti-human IDO polyclonal antibody (raised against the KLH-conjugated peptide of SEQ ID NO: 1, affinity purified)
Assay: flow cytometry of IFNgamma-activated monocyte-derived macrophages; antibody pre-adsorbed with immunizing peptide (competition against cellular IDO)

LIESGQLRERVEKLNMLC [immunizing peptide … (SEQ ID NO: 1), based on human IDO]
percent reduction of flow cytometry signal: > 95%
